Assay results taken from the supplement of paper PMC11316812.
± gives the standard deviation of the averaged measurements.

Experiments:
MCF7 = assay: percentage of EdU-negative (G0-arrested) nuclei per well, 72 h; higher = more G0 arrest; settings: reference: sequence is the full UniProt precursor, the tested protein was the secreted form or ectodomain
hTERT-HMEC = assay: as above; settings: reference: sequence is the full UniProt precursor, the tested protein was the secreted form or ectodomain
[1] = protein concentration 0.02535 µM
[2] = protein concentration 0.2535 µM
[3] = protein concentration 0.0225 µM
[4] = protein concentration 0.019925 µM
[5] = protein concentration 0.19925 µM
[6] = protein concentration 0.02225 µM
[7] = protein concentration 0.2225 µM
[8] = protein concentration 0.02425 µM
[9] = protein concentration 0.2425 µM
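Further: secreted proteins added to cultured cells, EdU pulse at the end, nuclei found by Hoechst imaging, EdU status from nuclear versus surrounding ring intensity ratio, PBS as neutral control.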

## MGFWILAILTILMYSTAAKFSKQSWGLENEALIVRCPRQGKPSYTVDWYYSQTNKSIPTQERNRVFASGQLLKFLPAAVADSGIYTCIVRSPTFNRTGYANVTIYKKQSDCNVPDYLMYSTVSGSEKNSKIYCPTIDLYNWTAPLEWFKNCQALQGSRYRAHKSFLVIDNVMTEDAGDYTCKFIHNENGANYSVTATRSFTVKDEQGFSLFPVIGAPAQNEIKEVEIGKNANLTCSACFGKGTQFLAAVLWQLNGTKITDFGEPRIQQEEGQNQSFSNGLACLDMVLRIADVKEEDLLLQYDCLALNLHGLRRHTVRLSRKNPIDHHSIYCIIAVCSVFLMLINVLVIILKMFWIEATLLWRDIAKPYKTRNDGKLYDAYVVYPRNYKSSTDGASRVEHFVHQILPDVLENKCGYTLCIYGRDMLPGEDVVTAVETNIRKSRRHIFILTPQITHNKEFAYEQEVALHCALIQNDAKVILIEMEALSELDMLQAEALQDSLQHLMKVQGTIKWREDHIANKRSLNSKFWKHVRYQMPVPSKIPRKASSLTPLAAQKQ
MCF7; [1]
  percentage of EdU-negative: 23.7 ± 0.79%
MCF7; [2]
  percentage of EdU-negative: 25.9 ± 0.45%
hTERT-HMEC; [1]
  percentage of EdU-negative: 5.463 ± 0.046%
hTERT-HMEC; [2]
  percentage of EdU-negative: 5.2 ± 0.66%

## MQLPLALCLVCLLVHTAFRVVEGQGWQAFKNDATEIIPELGEYPEPPPELENNKTMNRAENGGRPPHHPFETKDVSEYSCRELHFTRYVTDGPCRSAKPVTELVCSGQCGPARLLPNAIGRGKWWRPSGPDFRCIPDRYRAQRVQLLCPGGEAPRARKVRLVASCKCKRLTRFHNQSELKDFGTEAARPQKGRKPRPRARSAKANQAELENAY [Q9BQB4]
MCF7; [3]
  percentage of EdU-negative: 28.1 ± 1.4%
MCF7; protein concentration 0.225 µM
  percentage of EdU-negative: 34 ± 2%
hTERT-HMEC; [3]
  percentage of EdU-negative: 5.07 ± 1.1%
hTERT-HMEC; protein concentration 0.225 µM
  percentage of EdU-negative: 18.6 ± 2.6%

## MAVGKFLLGSLLLLSLQLGQGWGPDARGVPVADGEFSSEQVAKAGGTWLGTHRPLARLRRALSGPCQLWSLTLSVAELGLGYASEEKVIFRYCAGSCPRGARTQHGLALARLQGQGRAHGGPCCRPTRYTDVAFLDDRHRWQRLPQLSAAACGCGG
MCF7; [4]
  percentage of EdU-negative: 27.7 ± 0.63%
MCF7; [5]
  percentage of EdU-negative: 26.7 ± 3.4%
hTERT-HMEC; [4]
  percentage of EdU-negative: 5.17 ± 0.068%
hTERT-HMEC; [5]
  percentage of EdU-negative: 5.42 ± 0.64%

## MRNWLVLLCPCVLGAALHLWLRLRSPPPACASGAGPADQLALFPQWKSTHYDVVVGVLSARNNHELRNVIRSTWMRHLLQHPTLSQRVLVKFIIGAHGCEVPVEDREDPYSCKLLNITNPVLNQEIEAFSLSEDTSSGLPEDRVVSVSFRVLYPIVITSLGVFYDANDVGFQRNITVKLYQAEQEEALFIARFSPPSCGVQVNKLWYKPVEQFILPESFEGTIVWESQDLHGLVSRNLHKVTVNDGGGVLRVITAGEGALPHEFLEGVEGVAGGFIYTIQEGDALLHNLHSRPQRLIDHIRNLHEEDALLKEESSIYDDIVFVDVVDTYRNVPAKLLNFYRWTVETTSFNLLLKTDDDCYIDLEAVFNRIVQKNLDGPNFWWGNFRLNWAVDRTGKWQELEYPSPAYPAFACGSGYVISKDIVKWLASNSGRLKTYQGEDVSMGIWMAAIGPKRYQDSLWLCEKTCETGMLSSPQYSPWELTELWKLKERCGDPCRCQAR [Q8NCR0]
MCF7; [6]
  percentage of EdU-negative: 25.7 ± 4.8%
MCF7; [7]
  percentage of EdU-negative: 29.39 ± 0.067%
hTERT-HMEC; [6]
  percentage of EdU-negative: 5.56 ± 0.58%
hTERT-HMEC; [7]
  percentage of EdU-negative: 11 ± 1%

## MARRSRHRLLLLLLRYLVVALGYHKAYGFSAPKDQQVVTAVEYQEAILACKTPKKTVSSRLEWKKLGRSVSFVYYQQTLQGDFKNRAEMIDFNIRIKNVTRSDAGKYRCEVSAPSEQGQNLEEDTVTLEVLVAPAVPSCEVPSSALSGTVVELRCQDKEGNPAPEYTWFKDGIRLLENPRLGSQSTNSSYTMNTKTGTLQFNTVSKLDTGEYSCEARNSVGYRRCPGKRMQVDDLNISGIIAAVVVVALVISVCGLGVCYAQRKGYFSKETSFQKSNSSSKATTMSENDFKHTKSFII
MCF7; [3]
  percentage of EdU-negative: 24.2 ± 0.62%
MCF7; protein concentration 0.225 µM
  percentage of EdU-negative: 25.4 ± 2.1%
hTERT-HMEC; [3]
  percentage of EdU-negative: 5.13 ± 0.27%
hTERT-HMEC; protein concentration 0.225 µM
  percentage of EdU-negative: 4.52 ± 0.093%

## MPGLRRDRLLTLLLLGALLSADLYFHLWPQVQRQLRPRERPRGCPCTGRASSLARDSAAAASDPGTIVHNFSRTEPRTEPAGGSHSGSSSKLQALFAHPLYNVPEEPPLLGAEDSLLASQEALRYYRRKVARWNRRHKMYREQMNLTSLDPPLQLRLEASWVQFHLGINRHGLYSRSSPVVSKLLQDMRHFPTISADYSQDEKALLGACDCTQIVKPSGVHLKLVLRFSDFGKAMFKPMRQQRDEETPVDFFYFIDFQRHNAEIAAFHLDRILDFRRVPPTVGRIVNVTKEILEVTKNEILQSVFFVSPASNVCFFAKCPYMCKTEYAVCGNPHLLEGSLSAFLPSLNLAPRLSVPNPWIRSYTLAGKEEWEVNPLYCDTVKQIYPYNNSQRLLNVIDMAIFDFLIGNMDRHHYEMFTKFGDDGFLIHLDNARGFGRHSHDEISILSPLSQCCMIKKKTLLHLQLLAQADYRLSDVMRESLLEDQLSPVLTEPHLLALDRRLQTILRTVEGCIVAHGQQSVIVDGPVEQLAPDSGQANLTS [Q96MK3]
MCF7; protein concentration 0.014 µM
  percentage of EdU-negative: 24 ± 3.4%
MCF7; protein concentration 0.14 µM
  percentage of EdU-negative: 30.6 ± 0.74%
hTERT-HMEC; protein concentration 0.014 µM
  percentage of EdU-negative: 6.29 ± 0.36%
hTERT-HMEC; protein concentration 0.14 µM
  percentage of EdU-negative: 27.9 ± 9.3%

## MCVTYHNGTGYCKCPEGFLGEYCQHRDPCEKNRCQNGGTCVAQAMLGKATCRCASGFTGEDCQYSTSHPCFVSRPCLNGGTCHMLSRDTYECTCQVGFTGKECQWTDACLSHPCANGSTCTTVANQFSCKCLTGFTGQKCETDVNECDIPGHCQHGGTCLNLPGSYQCQCLQGFTGQYCDSLYVPCAPSPCVNGGTCRQTGDFTFECNCLPETVRRGTELWERDREVWNGKEHDEN [Q7Z3S9]
MCF7; [3]
  percentage of EdU-negative: 26 ± 0.95%
MCF7; protein concentration 0.225 µM
  percentage of EdU-negative: 24.5 ± 0.49%
hTERT-HMEC; [3]
  percentage of EdU-negative: 5.34 ± 0.17%
hTERT-HMEC; protein concentration 0.225 µM
  percentage of EdU-negative: 5.36 ± 0.21%

## MKTLAGLVLGLVIFDAAVTAPTLESINYDSETYDATLEDLDNLYNYENIPVDKVEIEIATVMPSGNRELLTPPPQPEKAQEEEEEEESTPRLIDGSSPQEPEFTGVLGPHTNEDFPTCLLCTCISTTVYCDDHELDAIPPLPKNTAYFYSRFNRIKKINKNDFASLSDLKRIDLTSNLISEIDEDAFRKLPQLRELVLRDNKIRQLPELPTTLTFIDISNNRLGRKGIKQEAFKDMYDLHHLYLTDNNLDHIPLPLPENLRALHLQNNNILEMHEDTFCNVKNLTYIRKALEDIRLDGNPINLSKTPQAYMCLPRLPVGSLV
MCF7; [8]
  percentage of EdU-negative: 23.5 ± 1%
MCF7; [9]
  percentage of EdU-negative: 26.2 ± 2.6%
hTERT-HMEC; [8]
  percentage of EdU-negative: 4.4 ± 0.046%
hTERT-HMEC; [9]
  percentage of EdU-negative: 6.32 ± 0.2%
